Measurements as given in patent US20240425848.

Molecular target: histone H3 trimethylated at lysine 9 (H3K9me3) in native chromatin of Caki-1 cells (UniProt P68431)

Substance	Ec: global enrichment of the ATAC-seq tagmentation signal over H3K9me3-marked regions, log2(ratio) over genomic Input, Caki-1 [Continued) e]	Mc: modal enrichment of the ATAC-seq tagmentation signal over H3K9me3-marked regions, log2(ratio) over genomic Input, Caki-1 [Continued) e]	stated: no tagmentation signal over H3K9me3 ChIP-seq domains (ATAC-seq on permeabilized Caki-1 nuclei)	stated: tagmentation signal over H3K9me3 ChIP-seq domains (ATAC-seq on permeabilized Caki-1 nuclei)	tagmentation of native chromatin on permeabilized nuclei (ATAC-seq)	Ec: global enrichment of the ATAC-seq tagmentation signal over H3K9me3-marked regions, log2(ratio) over genomic Input, Caki-1; subscript printed as 0, first E line of the box	GET-seq, sequential Tn5 then TnH tagmentation, compared with ChIP-seq profiles	Mc: modal enrichment of the ATAC-seq tagmentation signal over H3K9me3-marked regions, log2(ratio) over genomic Input, Caki-1; subscript printed as 0, first M line of the box, agrees with the mode of t	TnH ATAC-seq compared with H3K9me3 and H3K4me3 ChIP-seq	enrichment of tagmentation signal over H3K9me3-marked regions, compared among TnH #1-4	scGET-seq pseudobulk compared with H3K9me3 and H3K4me3 ChIP-seq	stated: tagmentation profile follows the H3K9me3 ChIP-seq profile (ATAC-seq, Caki-1)	stated: tagmentation profile follows the H3K9me3 ChIP-seq profile (bulk ATAC-seq with TnH alone and scGET-seq pseudo-bulk, Caki-1) [Continued) g]
Nextera	Ec= -3.16	Mc= -0.89	Nextera track (scale 0-9.3): near zero over the H3K9me3 domain at about 42.4-43.4 Mbp and only small spikes at about 43.8-44.6 Mbp of Chr. 19; peaks where the H3K4me3 track has peaks										
TnH #1: 93aaCD (HP1α)-3×(TGS)-Tn5	Ec= 0.01	Mc= 0.19		TnH#1 track (scale 0-6.6): continuous raised signal over the H3K9me3 domain at about 42.4-43.4 Mbp of Chr. 19, where the Tn5 and Nextera tracks are near zero, and lower continuous signal at about 43.8-44.6 Mbp; also sharp peaks at H3K4me3 positions	hybrid Tn5 constructs indeed cut and inserted oligos in regions enriched for H3K9me3								
TnH #2: 93aaCD (HP1α)-5×(TGS)-Tn5	Ec= -0.41	Mc= 0.07		TnH#2 track (scale 0-7.7): signal above baseline over the H3K9me3 domain at about 42.4-43.4 Mbp of Chr. 19, where the Tn5 and Nextera tracks are near zero; the sharp peaks at H3K4me3 positions stand out more than in TnH#3 and TnH#1	hybrid Tn5 constructs indeed cut and inserted oligos in regions enriched for H3K9me3								
TnH #3: 112aaCD (HP1α)-3×(TGS)-Tn5	Ec= 0.25	Mc= 0.31		TnH#3 track (scale 0-8.0): continuous raised signal over the H3K9me3 domain at about 42.4-43.4 Mbp of Chr. 19, where the Tn5 and Nextera tracks are near zero, and lower continuous signal at about 43.8-44.6 Mbp; also sharp peaks at H3K4me3 positions (e.g. about 45.5 Mbp)	hybrid Tn5 constructs indeed cut and inserted oligos in regions enriched for H3K9me3	E0= 0.25	TnH mimicked more closely H3K9me3 data, and to a lesser extent H3K4me3	M0= 0.31	TnH captures both H3K4me3- and H3K9me3-enriched regions, unlike Tn5 which closely matches H3K4me3 profiles	We identified the construct TnH #3, from now on TnH, as the most efficient	TnH was able to target regions positive for H3K9me3 as well as H3K4me3	TnH track (scale 0-15): broad raised signal where the H3K9me3 track has its domains, highest at about 54.5-55.7 Mbp and raised at about 59-62.5 Mbp of Chr.12, where the Tn5 track is near zero; Input (scale 0-10) flat near 0	tnH track (scale 0-15): broad raised signal of about half the scale or more at about 33-35, 36.3-37.5 and 38.0-38.9 Mbp of chr1, over the H3K9me3 domains; tnH pseudobulk track (scale 0-15): the same three domains raised, somewhat lower; both also show small peaks at H3K4me3 positions; Input (scale 0
TnH #4: 112aaCD (HP1α)-5×(TGS)-Tn5	Ec= -0.55	Mc= 0.07		TnH#4 track (scale 0-2.7): signal above baseline over the H3K9me3 domain at about 42.4-43.4 Mbp of Chr. 19, where the Tn5 and Nextera tracks are near zero; the sharp peaks at H3K4me3 positions stand out more than in TnH#3 and TnH#1	hybrid Tn5 constructs indeed cut and inserted oligos in regions enriched for H3K9me3								
